From patent publication US20100311648A1

Tests used:
[1] = target: human melanocortin-4 receptor (human) (UniProt P32245); test: cell-based or functional assay
[2] = target: melanocortin-1 receptor (mouse (B-16 melanoma cells); in some instances human (hMC1-R)) (UniProt Q01727); test: [I125]-NDP-α-MSH competition, MC1-R membranes
[3] = target: human melanocortin-4 receptor (human) (UniProt P32245); test: [I125]-NDP-α-MSH competition, hMC4-R HEK-293 membranes

Chain of melanocortin-1 receptor (mouse (B-16 melanoma cells); in some instances human (hMC1-R)) (Q01727 whole entry): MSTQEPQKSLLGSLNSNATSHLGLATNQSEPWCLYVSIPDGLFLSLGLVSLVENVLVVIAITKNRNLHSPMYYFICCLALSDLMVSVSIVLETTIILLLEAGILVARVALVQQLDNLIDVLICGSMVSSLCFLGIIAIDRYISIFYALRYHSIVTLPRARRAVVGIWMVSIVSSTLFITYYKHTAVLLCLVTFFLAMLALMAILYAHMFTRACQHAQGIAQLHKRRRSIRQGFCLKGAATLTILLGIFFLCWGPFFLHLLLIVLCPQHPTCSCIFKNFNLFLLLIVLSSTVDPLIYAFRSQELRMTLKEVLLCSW
Chain of human melanocortin-4 receptor (human) (P32245 whole entry): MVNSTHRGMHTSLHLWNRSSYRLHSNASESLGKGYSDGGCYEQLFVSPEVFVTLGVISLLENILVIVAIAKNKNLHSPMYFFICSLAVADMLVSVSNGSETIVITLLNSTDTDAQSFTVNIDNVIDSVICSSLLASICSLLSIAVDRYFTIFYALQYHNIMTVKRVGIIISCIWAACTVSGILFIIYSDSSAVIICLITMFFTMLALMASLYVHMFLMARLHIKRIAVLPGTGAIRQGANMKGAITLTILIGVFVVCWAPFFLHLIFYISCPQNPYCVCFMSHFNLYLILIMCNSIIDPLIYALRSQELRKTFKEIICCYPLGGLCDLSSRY

Row | Substance | EC50, cAMP, 0.1 ng/mL Doxycycline [1] [nM] | EC50, cAMP, 10 ng/mL Doxycycline [1] [nM] | Intrinsic Activity, cAMP, 0.1 ng/mL Doxycycline [1] [%] | Intrinsic Activity, cAMP, 10 ng/mL Doxycycline [1] [%] | Ki [2] [nM] | Ki [3] [nM]
1 | Ac-Arg-cyclo(Glu-Dab-D-Phe(4-F)-Arg-Trp-Orn)-NH2 (peptide) | 0.065 | 0.06 | 83 | 90 | 0.5 | 0.25
2 | Ac-Arg-cyclo(Glu-Dab-D-Phe(4-OMe)-Arg-Trp-Orn)-NH2 (peptide) | 0.15 | 0.16 | 28 | 97 | 0.15 | 0.25
3 | Ac-Arg-cyclo(Glu-Hyp-D-Phe(2-Cl)-Arg-Trp-Orn)-NH2 (peptide) | 1 | 0.153 | 41 | 98 | 143 | 1
4 | Ac-Arg-cyclo(Glu-Hyp-D-Phe(3-Cl)-Arg-Trp-Orn)-NH2 (peptide) |  | 0.55 | 6 | 90 | 430 | 2
5 | Ac-Arg-cyclo(Glu-Hyp-D-Phe(4-CN)-Arg-Trp-Orn)-NH2 (peptide) |  | 0.5 | 8 | 93 | 880 | 2
6 | Ac-Arg-cyclo(Glu-Hyp-D-Phe(4-F)-Arg-Trp-Orn)-NH2 (peptide) | 0.45 | 0.14 | 62 | 95 | 89 | 1
7 | Ac-Arg-cyclo(Glu-Met(O2)-D-Phe(4-F)-Arg-Trp-Orn)-NH2 (peptide) | 0.85 | 0.075 | 55 | 91 | 33 | 2
8 | Ac-Arg-cyclo(Glu-Orn-D-Phe(2-Cl)-Arg-Trp-Orn)-OH (peptide) | 2 | 0.235 | 74 | 93 | 8 | 8
9 | Ac-Arg-cyclo(Glu-Orn-D-Phe(3-Cl)-Arg-Trp-Orn)-OH (peptide) | 10 | 0.8 | 28 | 98 | 23 | 20
10 | Ac-Arg-cyclo(Glu-Thr(Bzl)-D-Phe(2-Cl)-Arg-Trp-Orn)-NH2 (peptide) | 0.37 | 0.157 | 30 | 93 | 12 | 0.35
11 | Ac-D-Arg-cyclo(Orn-His-D-Phe(2-Cl)-Arg-Trp-Glu)-NH2 (peptide) | 0.21 | 0.085 | 94 | 94 | 2 | 1
12 | Ac-D-Arg-cyclo(Orn-His-D-Phe(3,4-diF)-Arg-Trp-Glu)-NH2 (peptide) | 0.075 | 0.075 | 56 | 92 | 0.7 | 0.25
13 | Ac-D-Arg-cyclo(Orn-His-D-Phe(3-Cl)-Arg-Trp-Glu)-NH2 (peptide) | 0.64 | 0.4 | 22 | 95 | 3 | 0.6
14 | Ac-D-Arg-cyclo(Orn-His-D-Phe(4-CN)-Arg-Trp-Glu)-NH2 (peptide) | 0.325 | 0.2 | 31 | 99 | 6 | 0.6
15 | Ac-D-Arg-cyclo(Orn-His-D-Phe(4-F)-Arg-Trp-Glu)-NH2 (peptide) | 0.25 | 0.095 | 89 | 100 | 1 | 0.65
